From paper PMC7862258

Tests used:
[1] = anti-FLAG western blot of conditioned media, HEK293A; details: glycan lost; for expression_or_secretion, other: relative secretion, % of N249Q F3: control: same variant with N249 glycan (normalised to WT F3), arms normalised to N249Q F3
[2] = anti-FLAG western blot of cell lysate (intracellular level), HEK293A; details: glycan lost; control: WT F3

B1: fibulin-3 (F3): N249Q (protein)
parent chain: MLKALFLTMLTLALVKSQDTEETITYTQCTDGYEWDPVRQQCKDIDECDIVPDACKGGMKCVNHYGGYLCLPKTAQIIVNNEQPQQETQPAEGTSGATTGVVAASSMATSGVLPGGGFVASAAAVAGPEMQTGRNNFVIRRNPADPQRIPSNPSHRIQCAAGYEQSEHNVCQDIDECTAGTHNCRADQVCINLRGSFACQCPPGYQKRGEQCVDIDECTIPPYCHQRCVNTPGSFYCQCSPGFQLAANNYTCVDINECDASNQCAQQCYNILGSFICQCNQGYELSSDRLNCEDIDECRTSSYLCQYQCVNEPGKFSCMCPQGYQVVRSRTCQDINECETTNECREDEMCWNYHGGFRCYPRNPCQDPYILTPENRCVCPVSNAMCRELPQSIVYKYMSIRSDRSVPSDIFQIQATTIYANTINTFRIKSGNENGEFYLRQTSPVSAMLVLVKSLSGPREHIVDLEMLTVSSIGTFRTSSVLRLTIIVGPFSF
[1]; control: WT F3
  expression_or_secretion, percent_of_wt: no change
[2]
  expression_or_secretion, percent_of_wt: no change

B2: fibulin-3 (F3): N249Q/R387Q (protein)
parent chain: MLKALFLTMLTLALVKSQDTEETITYTQCTDGYEWDPVRQQCKDIDECDIVPDACKGGMKCVNHYGGYLCLPKTAQIIVNNEQPQQETQPAEGTSGATTGVVAASSMATSGVLPGGGFVASAAAVAGPEMQTGRNNFVIRRNPADPQRIPSNPSHRIQCAAGYEQSEHNVCQDIDECTAGTHNCRADQVCINLRGSFACQCPPGYQKRGEQCVDIDECTIPPYCHQRCVNTPGSFYCQCSPGFQLAANNYTCVDINECDASNQCAQQCYNILGSFICQCNQGYELSSDRLNCEDIDECRTSSYLCQYQCVNEPGKFSCMCPQGYQVVRSRTCQDINECETTNECREDEMCWNYHGGFRCYPRNPCQDPYILTPENRCVCPVSNAMCRELPQSIVYKYMSIRSDRSVPSDIFQIQATTIYANTINTFRIKSGNENGEFYLRQTSPVSAMLVLVKSLSGPREHIVDLEMLTVSSIGTFRTSSVLRLTIIVGPFSF
[1]
  expression_or_secretion, other: relative secretion, % of N249Q F3: no change

B3: fibulin-3 (F3): R140W/N249Q (protein)
parent chain: MLKALFLTMLTLALVKSQDTEETITYTQCTDGYEWDPVRQQCKDIDECDIVPDACKGGMKCVNHYGGYLCLPKTAQIIVNNEQPQQETQPAEGTSGATTGVVAASSMATSGVLPGGGFVASAAAVAGPEMQTGRNNFVIRRNPADPQRIPSNPSHRIQCAAGYEQSEHNVCQDIDECTAGTHNCRADQVCINLRGSFACQCPPGYQKRGEQCVDIDECTIPPYCHQRCVNTPGSFYCQCSPGFQLAANNYTCVDINECDASNQCAQQCYNILGSFICQCNQGYELSSDRLNCEDIDECRTSSYLCQYQCVNEPGKFSCMCPQGYQVVRSRTCQDINECETTNECREDEMCWNYHGGFRCYPRNPCQDPYILTPENRCVCPVSNAMCRELPQSIVYKYMSIRSDRSVPSDIFQIQATTIYANTINTFRIKSGNENGEFYLRQTSPVSAMLVLVKSLSGPREHIVDLEMLTVSSIGTFRTSSVLRLTIIVGPFSF
[1]
  expression_or_secretion, other: relative secretion, % of N249Q F3: no change

B4: fibulin-3 (F3): D49A/N249Q (protein)
parent chain: MLKALFLTMLTLALVKSQDTEETITYTQCTDGYEWDPVRQQCKDIDECDIVPDACKGGMKCVNHYGGYLCLPKTAQIIVNNEQPQQETQPAEGTSGATTGVVAASSMATSGVLPGGGFVASAAAVAGPEMQTGRNNFVIRRNPADPQRIPSNPSHRIQCAAGYEQSEHNVCQDIDECTAGTHNCRADQVCINLRGSFACQCPPGYQKRGEQCVDIDECTIPPYCHQRCVNTPGSFYCQCSPGFQLAANNYTCVDINECDASNQCAQQCYNILGSFICQCNQGYELSSDRLNCEDIDECRTSSYLCQYQCVNEPGKFSCMCPQGYQVVRSRTCQDINECETTNECREDEMCWNYHGGFRCYPRNPCQDPYILTPENRCVCPVSNAMCRELPQSIVYKYMSIRSDRSVPSDIFQIQATTIYANTINTFRIKSGNENGEFYLRQTSPVSAMLVLVKSLSGPREHIVDLEMLTVSSIGTFRTSSVLRLTIIVGPFSF
[1]
  expression_or_secretion, other: relative secretion, % of N249Q F3: no change

B5: fibulin-3 (F3): I220F/N249Q (protein)
parent chain: MLKALFLTMLTLALVKSQDTEETITYTQCTDGYEWDPVRQQCKDIDECDIVPDACKGGMKCVNHYGGYLCLPKTAQIIVNNEQPQQETQPAEGTSGATTGVVAASSMATSGVLPGGGFVASAAAVAGPEMQTGRNNFVIRRNPADPQRIPSNPSHRIQCAAGYEQSEHNVCQDIDECTAGTHNCRADQVCINLRGSFACQCPPGYQKRGEQCVDIDECTIPPYCHQRCVNTPGSFYCQCSPGFQLAANNYTCVDINECDASNQCAQQCYNILGSFICQCNQGYELSSDRLNCEDIDECRTSSYLCQYQCVNEPGKFSCMCPQGYQVVRSRTCQDINECETTNECREDEMCWNYHGGFRCYPRNPCQDPYILTPENRCVCPVSNAMCRELPQSIVYKYMSIRSDRSVPSDIFQIQATTIYANTINTFRIKSGNENGEFYLRQTSPVSAMLVLVKSLSGPREHIVDLEMLTVSSIGTFRTSSVLRLTIIVGPFSF
[1]
  expression_or_secretion, other: relative secretion, % of N249Q F3: no change
